{"source": "patent US20140080161A1", "about": "“PHOSPHATASE COUPLED KINASE ASSAY” (RESEARCH AND DIAGNOSTIC SYSTEMS, INC., priority 2010, published 2014)", "molecules": {"B1": {"name": "rmCD39L2: recombinant mouse CD39L2 phosphatase (protein, UniProt Q3U0P5 1-455, looked up)", "Ectonucleoside triphosphate …": "MRKIPNHGTLRMTKVAYPLGLCVGLFIYVAYIKWHRASAAQAFFTIAGAASGARWTQQAFSSPGSAARGHEVFYGIMFDAGSTGTRIHVFQFARPPGETPTLTHETFKALKPGLSAYADDVEKSAQGIQELLNVAKQHIPYDFWKATPLVLKATAGLRLLPGEKAQKLLQKVKEVFKASPFLVGDDCVSIMNGTDEGVSAWITVNFLTGSLKTPGSSSVGMLDLGGGSTQITFLPRVEGTLQASPPGHLTALQMFNRTYKLYSYSYLGLGLMSARLAILGGVEGKPAENDKELVSPCLSPRFRGEWEHAEVTYRISGQKAVGLYELCASRVSEVLRNKVHRTEEAQHVDFYAFSYYYDLAASFGLIDAEKGGSLVVGDFEIAAKYVCRTLETQPPSSPFACMDLTYISLLLHEFGFPGDKVLKLARKIDNVETSWALGAIFHYIDSLKRQKVPAL"}, "B2": {"name": "rhCD39L4: recombinant human CD39L4 phosphatase (protein, UniProt O75356 25-428, looked up)", "Nucleoside diphosphate …": "NQQTWFEGIFLSSMCPINVSASTLYGIMFDAGSTGTRIHVYTFVQKMPGQLPILEGEVFDSVKPGLSAFVDQPKQGAETVQGLLEVAKDSIPRSHWKKTPVVLKATAGLRLLPEHKAKALLFEVKEIFRKSPFLVPKGSVSIMDGSDEGILAWVTVNFLTGQLHGHRQETVGTLDLGGASTQITFLPQFEKTLEQTPRGYLTSFEMFNSTYKLYTHSYLGFGLKAARLATLGALETEGTDGHTFRSACLPRWLEAEWIFGGVKYQYGGNQEGEVGFEPCYAEVLRVVRGKLHQPEEVQRGSFYAFSYYYDRAVDTDMIDYEKGGILKVEDFERKAREVCDNLENFTSGSPFLCMDLSYITALLKDGFGFADSTVLQLTKKVNNIETGWALGATFHLLQSLGISH"}}, "key": {"[1]": {"assay": "Phosphatase coupled kinase assay, ERK1 specific activity", "format": "biochemical", "settings": "4 mM ATP, 4 mM MBP peptide", "method": "(§1) The kinase reactions were carried out in 50 μL of kinase assay buffer including 25 mM Tris, 150 mM NaCl, 5 mM MgCl2, and 5 mM CaCl2 at pH 7.5 in a 96 well plate at room temperature. Each reaction was stopped with 30 μL of Malachite Reagent A and 100 μL of water. The color was developed with 30 μL Malachite Reagent B. The plate was read at 620 nm with a multi-well plate reader. If the predicted phosphate content in the reaction was above 4,000 pmol, the reaction was diluted before phosphate detection.\nA series of reactions were performed with extracellular signal-regulated kinase 1 (ERK1) as the kinase. Various amounts of ERK1 (0, 0.1, 0.2, 0.4 and 0.8 μg) were combined with 4 mM ATP, 4 mM MBP peptide acceptor substrate, and 0.2 μg CD39L2. […] The reactions were stopped after 20 minutes, the Malachite Green assay was performed as described above, and the OD was measured at 620 nm. The results are shown in FIG. 10, wherein the OD reading is plotted against the quantity of ERK1. This plot was then used to determine the specific activity of ERK1. The specific activity was calculated by first determining the slope of the curve (0.7728 OD/μg), which was then multiplied by a conversion factor (4081 pmol/OD) and divided by the reaction time (20 minutes) (0.7728 OD/μg×4081 pmol/OD/20 min=157.69 pmol/min/μg). The coupling efficiency of rhCD39L2 in 4 mM ATP was predicted to be 0.4 based on the data of Example 3 (FIG. 5). The specific activity of the ERK1 was then adjusted for the coupling efficiency and was calculated to be 394.22 pmol/min/μg. (157.69 pmol/min/μg/0.4=394.22 pmol/min/μg)"}, "[2]": {"settings": "enzyme as obtained from R&D Systems; cited from earlier work"}, "[3]": {"assay": "ADP hydrolysis curve with increasing amounts of phosphatase, free phosphate by Malachite Green", "format": "biochemical", "settings": "5 minutes", "from_the_text": "The relative activity of the phosphatase on ADP and ATP can be measured by creating hydrolysis curves for ADP and ATP. For example, such hydrolysis curves may be created by performing a series of reactions separately combining set quantities of ADP or ATP with varying quantities of phosphatase and detecting the free phosphate produced. An example of such curves is described in Example 1 below. The resulting phosphate levels (or OD readings, which directly correspond to the phosphate levels) can be plotted against the amount of phosphatase used. The phosphate level or OD readings can be compared at the same quantity of the phosphatase to determine the relative activity of the phosphatase for ADP as compared to ATP. […] The amount of phosphatase to be used for kinase reactions is preferably selected from within the rapidly rising portion of the ADP hydrolysis curve. In addition, the relative activity of the phosphatase for ADP versus ATP is preferably compared within this rapidly rising portion of the hydrolysis curve, at or near the steepest portion of the curve. At phosphatase levels below this range, the generated signals are weak, while at phosphatase levels above this range, the ADP hydrolysis approaches completion, which could underestimate the activity of the phosphatase on ADP due to exhaustion of the substrate.\nas §1\nIn this experiment, the relative activity of rhCD39L2 on ADP and ATP was determined. In a first series of reactions, 100 nmol of 2 mM ATP was combined with increasing amounts of rhCD39L2 (0.03125 μg, 0.0625 μg, 0.125 μg, 0.25 μg, 0.5 μg) for 20 minutes. Likewise in a second series of reactions, 100 nmol of 2 mM ADP was combined with the same increasing amounts of rhCD39L2 for 20 minutes. The reactions were stopped after 20 minutes and free phosphate was measured using the Malachite Green assay as described above.\nThe relative activity of recombinant mouse CD 39L2 (rmCD39L2) on ADP and ATP was determined in a series of reactions similar to Example 1. 100 nmol of 2 mM ATP was combined with increasing amounts of rmCD39L2 (0.03125 μg, […], 0.125 0.25 μg, 0.5 μg). Likewise in a second series of reactions, 100 nmol of 2 mM ADP was combined with the same increasing amounts of rmCD39L2. The reactions were stopped after 5 minutes and free phosphate was measured using the Malachite Green assay as described above.\nThe experiment of Example 1 was repeated using recombinant human CD39L4 (rhCD39L4). 100 nmol of ATP (2 mM) was combined with increasing amounts of rhCD39L4 (0.03125 μg, 0.0625 μg, 0.125 μg, 0.25 μg, 0.5 μg, 1.0 μg). Likewise in a second series of reactions, 100 nmol of ADP (2 mM) was combined with the same increasing amounts of rhCD39L4 for 5 minutes. The reactions were stopped after 5 minutes and free phosphate was measured using the Malachite Green assay as described above. […] As such, the necessary preference of the phosphatase for ADP as compared to ATP is present."}, "[4]": {"assay": "Specific activity of the phosphatase (free phosphate released per time per amount)", "format": "biochemical", "from_the_text": "Phosphatases used in embodiments of the invention have a high specific activity on ADP. The specific activity of the phosphatase used in the examples is the amount of free phosphate released from a substrate per unit time and per amount of phosphatase under a given set of conditions, and may be determined at the rising phase of an enzymatic dose curve, such as the hydrolysis curve as described above. In some embodiments, the phosphatase has a specific activity of greater than 100 pmol/min/μg under optimal conditions. The conditions may include optimal pH, salt concentrations, and the presence of any cofactor. In other embodiments, the phosphatase has a specific activity of greater than 1,000 pmol/min/μg. In still other embodiments, the phosphatase has a specific activity of greater than 20,000 pmol/min/μg. When phosphatases having lower specific activity are used, larger amounts of such phosphatases or longer reaction times may be used to achieve the same level of hydrolysis as can be achieved with a phosphatase having higher specific activity."}}}
{"molecule": "ERK1: extracellular signal-regulated kinase 1 from R&D Systems", "values": [{"measurement": "slope of the curve OD versus quantity of ERK1", "setting": "[1]; 0.2 μg CD39L2, 20 minutes", "result": 0.7728, "unit": "OD/μg"}, {"measurement": "specific activity before coupling efficiency adjustment", "setting": "[1]; 20 minutes", "result": 157.69, "unit": "pmol/min/µg"}, {"measurement": "specific activity adjusted for the coupling efficiency", "setting": "[1]; coupling efficiency 0.4", "result": 394.22, "unit": "pmol/min/µg"}]}
{"molecule": "B1", "values": [{"measurement": "specific activity", "setting": "[2]", "result": "> 100,000 pmol/min/μg"}, {"measurement": "times greater activity with ADP than with ATP", "setting": "[3]; phosphatase at 0.25 μg", "result": "30-40 times"}]}
{"molecule": "B2", "values": [{"measurement": "specific activity on ADP", "setting": "[4]", "result": "> 1,000 pmol/min/μg"}, {"measurement": "level of activity compared with rhCD39L2", "setting": "[3]; Example 9, up to 1.0 μg", "result": "lower level of activity than rhCD39L2"}]}
